B1: miR-652-3p (ssRNA)
RNA: AAUGGCGCCACUAGGGUUGUG
B2: miR-574-5p (ELISA) (ssRNA)
RNA: UGAGUGUGUGUGUGUGAGUGUGU
B3: miR-204-5p (ssRNA)
RNA: UUCCCUUUGUCAUCCUAUGCCU

Each binder was assayed against TDP43 (natively folded full-length, ab224788) (UniProt Q13148 1-414) (assay: ELISA (immobilized miRNA titration, EC50); 5 nM TDP43; AC/TG nonspecific oligo 1 ug/ml; EMSA: 14 mM Tris pH 8.0, 35 mM KCl, 14 mM NaCl, 1.4 mM MgCl2, 14% glycerol, 0.7 mM DTT, 30 min RT, 5 nM RNA, gel at 4 C; ELISA: 20 mM HEPES pH 7.5, 150 mM NaCl, 1.5 mM MgCl2, 0.05% Tween 20, 0.5 mM DTT, 1 ug/ml AC/TG oligo, 0.2% BSA, 12 h 4 C). Settings: protein: commercial; label: 3'-biotin; single strand.
TDP43 (natively folded full-length, ab224788), sequence (Q13148 whole entry): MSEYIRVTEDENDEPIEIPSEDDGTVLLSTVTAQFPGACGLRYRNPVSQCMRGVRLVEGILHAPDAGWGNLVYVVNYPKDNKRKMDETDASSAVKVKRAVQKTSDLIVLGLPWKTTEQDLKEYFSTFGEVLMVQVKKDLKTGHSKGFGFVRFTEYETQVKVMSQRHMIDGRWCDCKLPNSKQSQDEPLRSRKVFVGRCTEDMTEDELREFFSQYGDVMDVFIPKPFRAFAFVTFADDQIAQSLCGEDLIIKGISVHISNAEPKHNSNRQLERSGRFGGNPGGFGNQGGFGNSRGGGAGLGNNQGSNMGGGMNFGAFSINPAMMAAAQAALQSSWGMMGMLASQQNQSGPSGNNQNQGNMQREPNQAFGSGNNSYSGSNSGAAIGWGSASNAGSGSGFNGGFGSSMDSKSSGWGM
In the case of B1, the “apparent K (half saturation)” value is reported as 6.41 nM.
In the case of B2, the “apparent K (half saturation)” value is reported as 2.84 nM.
For B3, the “apparent K (half saturation)” value was 37.7 nM.
